Laboratory results reported in the supplement of paper PMC11136658.

System: peptide library, one residue held at a place counted from the Y acceptor
Assay: relative phosphorylation of the sub-library (ratio to the mean residue at this position); higher = residue favoured
Procedure, shortened: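 Peptide library mixtures, biotinylated and centred on Tyr, each fixed one residue at one position from −5 to +5. Purified recombinant kinases were incubated with them for 90 min in 384-well plates alongside 50 μM ATP and γ-32P-ATP, and the captured, rinsed peptides on streptavidin membranes were measured by phosphorimaging and ImageQuant. Normalization divided each position's intensities by the sum of its 18 randomized residues (16 for the Ser/Thr-free library) and multiplied by that number, so that values give phosphorylation relative to the mean randomized residue.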

FLT4, construct: aa800-end, human, sequence (P35916 800-1363, looked up): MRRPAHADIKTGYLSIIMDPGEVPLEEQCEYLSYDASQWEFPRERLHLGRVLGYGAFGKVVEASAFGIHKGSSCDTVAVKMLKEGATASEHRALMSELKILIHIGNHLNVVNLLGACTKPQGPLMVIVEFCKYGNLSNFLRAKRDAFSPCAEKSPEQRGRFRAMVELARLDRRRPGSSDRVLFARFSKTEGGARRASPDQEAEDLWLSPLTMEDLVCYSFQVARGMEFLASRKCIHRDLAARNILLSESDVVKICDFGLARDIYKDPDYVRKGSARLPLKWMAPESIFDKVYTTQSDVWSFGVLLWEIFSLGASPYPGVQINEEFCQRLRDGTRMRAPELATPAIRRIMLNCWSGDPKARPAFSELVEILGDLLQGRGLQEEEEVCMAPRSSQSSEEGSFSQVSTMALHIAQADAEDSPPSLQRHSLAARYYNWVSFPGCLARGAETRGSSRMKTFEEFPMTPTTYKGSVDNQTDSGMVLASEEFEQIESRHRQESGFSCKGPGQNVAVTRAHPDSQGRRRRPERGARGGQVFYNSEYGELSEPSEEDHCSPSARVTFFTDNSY
FYN, construct: Full length, human, sequence (P06241 whole entry, looked up): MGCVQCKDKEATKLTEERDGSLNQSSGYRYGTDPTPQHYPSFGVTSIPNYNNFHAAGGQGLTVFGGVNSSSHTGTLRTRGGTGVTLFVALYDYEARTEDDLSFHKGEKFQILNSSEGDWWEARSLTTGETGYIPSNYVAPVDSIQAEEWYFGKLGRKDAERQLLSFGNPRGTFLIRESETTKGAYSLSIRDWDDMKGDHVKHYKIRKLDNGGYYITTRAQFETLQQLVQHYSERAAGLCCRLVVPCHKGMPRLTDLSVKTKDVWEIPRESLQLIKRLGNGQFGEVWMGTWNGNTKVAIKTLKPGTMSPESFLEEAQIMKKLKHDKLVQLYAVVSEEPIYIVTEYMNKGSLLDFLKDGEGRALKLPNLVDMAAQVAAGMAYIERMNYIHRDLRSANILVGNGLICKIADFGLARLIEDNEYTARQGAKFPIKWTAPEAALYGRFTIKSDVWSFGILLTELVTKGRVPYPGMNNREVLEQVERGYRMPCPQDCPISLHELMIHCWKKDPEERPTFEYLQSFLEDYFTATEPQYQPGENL

FLT4, construct: aa800-end, human (from UniProt P35916)
relative phosphorylation
Settings	at +1	at +2	at +3	at +4	at +5	at -1	at -2	at -3	at -4	at -5
A fixed	0.654	0.524	0.48	0.749	0.758	0.638	0.879	0.799	0.976	0.878
D fixed	0.367	0.647	0.424	0.913	1.12	2.84	1.25	1.3	1.05	1.04
E fixed	0.448	0.846	0.366	0.895	0.95	1.93	1.3	1.34	1.16	0.956
F fixed	2.19	1.57	3.08	1.07	1.31	1.09	0.748	1.04	1.14	1.12
G fixed	0.351	0.332	0.713	1.01	0.98	0.492	0.949	0.888	0.967	0.956
H fixed	1.08	1.05	0.595	1.33	1.12	1.24	1.16	1.16	1.08	1.27
I fixed	1.69	1.02	1.82	0.723	0.927	1.05	0.825	0.743	0.798	0.898
K fixed	0.643	0.864	0.396	1.16	1.01	0.439	0.921	0.964	0.992	1.08
L fixed	1.06	1.36	2.1	0.856	1.06	0.746	0.887	0.845	0.928	0.853
M fixed	1.02	1.07	1.98	0.98	0.991	0.655	0.962	0.853	0.837	0.953
N fixed	0.534	0.899	0.389	0.868	1.1	1.6	1.2	1.24	0.896	1.08
P fixed	0.571	0.471	0.588	1.17	1.04	0.583	0.945	0.8	0.915	0.822
Q fixed	1.25	0.896	0.59	1.09	0.967	1.15	1.16	1.11	1.08	1.07
R fixed	0.734	1.3	0.554	1.37	1.01	0.507	1.17	1.09	1.14	1.24
S fixed	0.599	0.684	0.506	0.92	0.829	0.657	1.08	1.09	0.843	0.921
T fixed	0.9	0.895	0.72	0.848	0.771	0.792	0.899	1.01	0.74	0.848
V fixed	2.12	0.975	1.4	0.751	0.774	0.892	0.766	0.712	0.844	0.777
W fixed	1.78	2.6	1.3	1.3	1.28	0.706	0.895	1.03	1.61	1.23
pThr fixed	0.737	1.37	0.521	0.8	1.08	1.47	0.969	1.13	1.03	0.981
pTyr fixed	2.51	2.96	0.651	0.9	0.834	3.16	1.24	1.38	1.29	1.06

FYN, construct: Full length, human (from UniProt P06241)
relative phosphorylation
Settings	at +1	at +2	at +3	at +4	at +5	at -1	at -2	at -3	at -4	at -5
A fixed	1.68	1.07	0.544	0.857	0.903	0.622	1.04	0.787	1.08	1.02
D fixed	0.925	0.762	0.546	1.02	0.987	0.867	1.77	2.4	1.64	1.5
E fixed	1.79	1.76	0.601	1	0.951	1.08	1.95	2.8	1.89	1.35
F fixed	0.656	1.08	3.35	1.23	1.16	0.885	0.483	0.803	0.997	0.993
G fixed	3.49	0.728	0.941	1.03	1.03	0.467	1.38	0.91	1.17	1.14
H fixed	0.53	0.515	0.732	0.901	1.01	0.419	0.77	0.814	0.726	0.924
I fixed	0.861	1.06	1.72	0.735	0.718	3.38	0.717	0.641	0.796	0.833
K fixed	0.231	0.61	0.397	1.12	1.04	0.221	0.515	0.469	0.622	0.901
L fixed	0.635	1.02	1.39	0.912	0.92	1.76	0.716	0.672	0.906	0.933
M fixed	0.992	1.05	0.894	1.04	0.858	0.806	0.667	0.729	0.784	0.904
N fixed	0.504	0.806	0.455	0.81	1.03	0.33	1.34	1.26	0.903	0.97
P fixed	0.291	0.734	0.571	0.945	1.48	1.2	1.43	0.969	1.32	1.17
Q fixed	0.906	0.951	0.539	1.14	0.81	0.521	1.2	0.965	1.08	0.978
R fixed	0.311	0.79	0.728	1.14	1.22	0.227	0.612	0.56	0.744	0.886
S fixed	1.01	1.32	0.628	0.977	1.03	0.44	1.23	0.945	0.813	0.865
T fixed	0.895	1.39	0.92	0.861	0.996	1.33	0.774	0.79	0.733	0.779
V fixed	0.935	1.28	1.4	0.882	0.722	2.95	0.793	0.649	0.821	0.84
W fixed	1.36	1.08	1.64	1.38	1.14	0.497	0.606	0.838	0.973	1
pThr fixed	1.64	2.15	0.627	0.773	0.686	4.17	1.92	1.58	1.42	1.31
pTyr fixed	3.45	1.96	0.89	1.23	1.11	1.34	1.37	1.71	1.52	1.32
